How the values were obtained:
[1] = target: T1, DNA polymerase beta (Polβ) (rat, UniProt P06766 1-335); test: fluorescence titration; TAF-Polβ; n 0.94; 50 mM HEPES pH 8.0, 100 mM NaCl, 4 mM DTT (+10 mM EDTA for APE1); labelled protein from 20 nM; temperature not stated
[2] = target: T1, DNA polymerase beta (Polβ); test: fluorescence titration; FAM-Polβ; n 1.3; 50 mM HEPES pH 8.0, 100 mM NaCl, 4 mM DTT (+10 mM EDTA for APE1); labelled protein from 20 nM; temperature not stated
[3] = target: AP endonuclease 1 (APE1) (human, UniProt P27695 1-318); test: fluorescence titration; TAF-APE1; 10 mM EDTA; n 1.15; 50 mM HEPES pH 8.0, 100 mM NaCl, 4 mM DTT (+10 mM EDTA for APE1); labelled protein from 20 nM; temperature not stated; conditions: protein: recombinant; tags: TAF- or FAM-labelled (terminal amino group primarily); blunt outer ends, 1-nt gap; upstream 15-mer + downstream 16-mer on 32-mer template
[4] = target: XRCC1 (human, UniProt P18887 1-633); test: fluorescence titration; TAF-XRCC1; n 0.90; 50 mM HEPES pH 8.0, 100 mM NaCl, 4 mM DTT (+10 mM EDTA for APE1); labelled protein from 20 nM; temperature not stated; conditions: protein: recombinant; tags: TAF-labelled; blunt outer ends, 1-nt gap; upstream 15-mer + downstream 16-mer on 32-mer template

B1: gap-DNA (dsDNA)
DNA 1: GGCGATTAAGTTGGG
DNA 2: AACGTCAGGGTCTTCC
DNA 3: GGAAGACCCTGACGTTACCCAACTTAATCGCC
modifications: 5'-phosphate on downstream primer
B1 was tested, and the “apparent K (half saturation)” value [1] was 30 nM, the “apparent K (half saturation)” value [2] was 23 nM and the “apparent K (half saturation)” value [3] was 25 ± 3 nM. For the same binder, the “apparent K (half saturation)” value [4] was 25 ± 4 nM.

Reference: article PMC4499159, “Quantitative characterization of protein–protein complexes involved in base excision DNA repair”
